According to paper PMC10739865, “The Mycobacterium tuberculosis methyltransferase Rv2067c manipulates host epigenetic programming to promote its own survival” (Nature Communications, 2023):

Target: the molecule itself
Experiment: crystal structure

B1: Mycobacterium tuberculosis methyltransferase Rv2067c (tagless recombinant protein used for crystallization) (enzyme)
chain: TDDHPRADIVSRQYHRWLYPHPIADLEAWTTANWEWFDPVHSHRILWPDREYRPDLDILIAGCGTNQAAIFAFTNRAAKVVAIDISRPALDHQQYLKDKHGLANLELHLLPIEELATLGRDFDLVVSTGVLHHLADPRAGMKELAHCLRRDGVVAAMLYGKYGRIGVELLGSVFRDLGLGQDDASIKLAKEAISLLPTYHPLRNYLTKARDLLSDSALVDTFLHGRQRSYTVEECVDLVTSAGLVFQGWFHKAPYYPHDFFVPNSEFYAAVNTLPEVKAWSVMERLETLNATHLFMACRRDRPKEQYTIDFSTVAALDYVPLMRTRCGVSGTDMFWPGWRMAPSPAQLAFLQQVDGRRTIREIAGCVARTGEPSGGSLADLEEFGRKLFQSLWRLDFVAVALPASG
notes: also called MTase
How did the “stoichiometry N” value turn out when B1 was run?
Its value is 2.
